Results taken from patent US20200164032A1 (WASHINGTON UNIVERSITY, published 2020).

Target: T1, murine TNF-alpha (mouse, UniProt P06804 80-235)
T1 construct: also called mTNF-alpha; TNF-α
T1 sequence: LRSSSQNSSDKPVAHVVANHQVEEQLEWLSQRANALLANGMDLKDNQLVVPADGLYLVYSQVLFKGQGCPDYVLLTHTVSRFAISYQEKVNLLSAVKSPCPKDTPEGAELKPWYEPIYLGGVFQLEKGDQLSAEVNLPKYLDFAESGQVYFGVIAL
Assay: SPR, R17 on CM5 chip

B1: R17 chemokine decoy receptor of Rodent herpesvirus Peru (RHVP), wild type, C-terminal 8-His fusion (receptor)
chain: GPVGEPVASEINEASKVSSRLLTQDILFRKDRQATISLPIKLPVEDIITQTCDKITYGPLKFLDLLEKETAVLPLSTDITCPACLGRAVLVGKWECPAHVAVNESDLTVFGPNKEEHVPQFVTVQQPSDGKMQRLFFAKFLGTEESLAVLRVPGPDGHLCIQEALIHFKELSGAGVCSLWKANDSREEGLEMKQVDCLETTVLENQTCIATTLSKKIYHRLYCGERLMTGGQVSTRVLLTALGFYKRQPYTFHRVPKGMVYVHLIDSGSEDYMEYSECEEVTPGRYEDKQISYTFYTDLFQTADGEPVLASVWGTSGLKDSAYESCAFVIPTKGRRKLVPRRIMSKCYPFRLTYHPSTMTVRLDVRVEKHHGATDQGFVFLKMESGTYSEGREYYLDRVLWGEDSSTNNVLQ
notes: not shown: C-terminal 8-His tag
B1: no binding.
